Square brackets hold non-standard residues; d marks the D form. Ends that are not written are not given here. Peptide text beside a SMILES is read from it. Ahx = NCCCCCC(=O)O
T1: rat pancreatic islet (wild type) GIP-receptor stably expressed on CHO-K1 cells (rat, UniProt P43219 19-455)
T1 construct: whole, on cells; also called wtGIPR cells; wtGIP-R1 cells
T1 sequence (looked up): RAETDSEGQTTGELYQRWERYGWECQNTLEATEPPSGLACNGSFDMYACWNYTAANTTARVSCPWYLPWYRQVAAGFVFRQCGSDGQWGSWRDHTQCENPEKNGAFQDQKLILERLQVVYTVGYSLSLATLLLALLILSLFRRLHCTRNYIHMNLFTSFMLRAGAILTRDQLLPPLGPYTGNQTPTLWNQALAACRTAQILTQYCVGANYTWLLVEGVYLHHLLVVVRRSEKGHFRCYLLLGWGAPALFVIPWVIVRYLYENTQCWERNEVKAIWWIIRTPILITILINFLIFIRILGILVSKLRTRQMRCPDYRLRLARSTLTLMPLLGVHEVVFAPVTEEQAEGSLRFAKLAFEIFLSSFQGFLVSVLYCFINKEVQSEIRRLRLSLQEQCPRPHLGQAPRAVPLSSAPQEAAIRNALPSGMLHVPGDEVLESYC


Assays:
purified kidney DPIV = target: T2, purified kidney DPIV (Sus scrofa, UniProt P22411); assay: Determination of DPIV resistance by MALDI-TOF mass spectrometry; assay type: in vitro ADME; settings: for half-life: read-out: half life after incubation with DP IV
T2 construct: The hydrolysis of peptide analogues by purified kidney DPIV was studied as described previously [12]; from tissue; host or cells: kidney
T2 sequence (P22411 whole entry): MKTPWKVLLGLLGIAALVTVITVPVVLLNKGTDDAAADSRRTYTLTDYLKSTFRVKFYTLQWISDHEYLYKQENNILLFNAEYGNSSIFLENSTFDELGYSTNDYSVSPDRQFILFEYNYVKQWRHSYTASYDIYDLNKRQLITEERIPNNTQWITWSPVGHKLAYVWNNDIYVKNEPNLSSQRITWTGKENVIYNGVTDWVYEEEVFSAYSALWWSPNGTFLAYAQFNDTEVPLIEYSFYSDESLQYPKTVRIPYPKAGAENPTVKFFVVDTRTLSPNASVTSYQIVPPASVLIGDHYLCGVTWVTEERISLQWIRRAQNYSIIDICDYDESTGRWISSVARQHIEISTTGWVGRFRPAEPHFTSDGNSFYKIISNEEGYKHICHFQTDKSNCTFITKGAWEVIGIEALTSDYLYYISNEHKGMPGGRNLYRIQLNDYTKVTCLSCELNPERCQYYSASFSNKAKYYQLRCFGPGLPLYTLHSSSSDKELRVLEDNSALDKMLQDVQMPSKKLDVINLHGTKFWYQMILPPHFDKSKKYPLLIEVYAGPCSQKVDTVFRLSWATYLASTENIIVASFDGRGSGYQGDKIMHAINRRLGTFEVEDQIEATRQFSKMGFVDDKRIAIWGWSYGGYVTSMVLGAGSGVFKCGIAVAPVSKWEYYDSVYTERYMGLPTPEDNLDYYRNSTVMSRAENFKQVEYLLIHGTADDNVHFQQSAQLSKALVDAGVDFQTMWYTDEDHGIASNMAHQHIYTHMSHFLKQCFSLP
Description: The hydrolysis of peptide analogues by purified kidney DPIV was studied as described previously. […] Samples were removed from the incubation mixture and prepared for MALDI-TOF mass spectrometry, as described in Pauly, […]., Pederson, R. A., and Demuth, H. U.

[1] = target: T1, rat pancreatic islet (wild type) …; assay: competition with 125I-GIP on CHO-K1 cells transfected with rat GIP receptor
Description: (§1) Cells were cultured in DMEM/F12, supplemented with 10% newborn calf serum, 50 units/ml penicillin G, and 50 μg/ml streptomycin (Culture media and antibiotics from Gibco BRL, Life Technologies). Cells were grown in 75 cm² flasks until 80-90% confluent, when they were split and seeded onto 24 well plates at a density of 50,000 cells/well. Experiments were carried out 48 h later.
(§2) Binding studies using ¹²⁵I-labeled spGIP₁₋₄₂, purified by high performance liquid chromatography (HPLC), were performed essentially as described previously-[21]. wtGIP-R1 Cells (1-5×10⁵/well) were washed twice at 4° C. in binding buffer (BB), consisting of DMEM/F12 (GIBCO), 15 mM HEPES, 0.1% bovine serum albumin (BSA), 1% Trasylol (aprotinin; Bayer), pH 7.4. They were incubated for 12-16 h at 4° C. with ¹²⁵I-spGIP (50,000 cpm) in the presence or absence of unlabeled GIP₁₋₄₂ or analogue. Following incubation, cells were washed twice with ice cold buffer, solubilized with 0.1 M NaOH (1 ml), and transferred to culture tubes for counting of cell-associated radioactivity. Nonspecific binding was defined as that measured in the presence of 1 μM GIP₁₋₄₂ or GIP₁₋₃₀, and specific binding expressed as % of binding in the absence of competitor (% B/Bo).

[2] = target: T1, rat pancreatic islet (wild type) …; assay: displacement of 125I-GIP from CHO-K1 cells transfected with rat GIP receptor, 20 µM peptide
Description: as §1, §2

[3] = target: T1, rat pancreatic islet (wild type) …; assay: cell-based or functional assay
[4] = purified kidney DPIV, 0.04 M Tris buffer pH 7.6, up to 24 h, MALDI-TOF MS

Row | Molecule | half life after incubation with DP IV (purified kidney DPIV; [4]) | half-life (purified kidney DPIV; [4]) [min] | half life after incubation with DP IV (purified kidney DPIV; pH 7.6) | IC50 [1] [nM] | % Displacement at 20 µM [2] [%] | Max. cAMP (Fold Basal) [3] [fold basal] | cAMP Production EC50 [3] [nM]
1 | C[C@@H](NC(=O)[C@@H](N)Cc1ccc(O)cc1)C(=O)N[C@@H](CCC(=O)O)C(=O)NCC(=O)N[C@H](C(=O)N[C@@H](Cc1ccccc1)C(N)=O)[C@@H](C)O [D-Ala^2-GIP1-6a] (H-Y[dA]EGTF-NH2) | stable | – | – | – | – | – | –
2 | CC[C@H](C)[C@H](NC(=O)[C@H](CO)NC(=O)[C@H](Cc1ccc(O)cc1)NC(=O)[C@H](CC(=O)O)NC(=O)[C@H](CO)NC(=O)[C@@H](NC(=O)[C@H](Cc1ccccc1)NC(=O)[C@@H](NC(=O)CNC(=O)[C@H](CCC(=O)O)NC(=O)[C@@H](C)NC(=O)[C@@H](N)Cc1ccc(O)cc1)[C@@H](C)O)[C@@H](C)CC)C(=O)N[C@@H](C)C(=O)N[C@@H](CCSC)C(=O)O [D-Ala^2-GIP1-14] | stable | – | – | – | – | – | –
3 | CC[C@H](C)[C@H](NC(=O)[C@H](CO)NC(=O)[C@H](Cc1ccc(O)cc1)NC(=O)[C@H](CC(=O)O)NC(=O)[C@H](CO)NC(=O)[C@@H](NC(=O)[C@H](Cc1ccccc1)NC(=O)[C@@H](NC(=O)CNC(=O)[C@H](CCC(=O)O)NC(=O)[C@H](C)NC(=O)[C@@H](N)Cc1ccc(O)cc1)[C@@H](C)O)[C@@H](C)CC)C(=O)N[C@@H](C)C(=O)O [GIP1-13] | – | 11.5 ± 2.5 | – | – | – | – | –
4 | CC[C@H](C)[C@H](NC(=O)[C@H](CO)NC(=O)[C@H](Cc1ccc(O)cc1)NC(=O)[C@H](CC(=O)O)NC(=O)[C@H](CO)NC(=O)[C@@H](NC(=O)[C@H](Cc1ccccc1)NC(=O)[C@@H](NC(=O)CNC(=O)[C@H](CCC(=O)O)NC(=O)[C@H](C)NC(=O)[C@@H](N)Cc1ccc(O)cc1)[C@@H](C)O)[C@@H](C)CC)C(=O)N[C@@H](C)C(=O)N[C@@H](CCSC)C(=O)N[C@@H](CC(=O)O)C(=O)O [GIP1-15] | – | 35 ± 5.2 | – | – | – | – | –
5 | D-Ala^2-GIP1-30a: GIP1-30 analog, N-terminal sequence Tyr-D-Ala-Glu-Gly (Y[dA]EGTFISDYSIAMDKIRQQDFVNWLLAQK-NH2) | – | – | stable | – | – | – | –
6 | YAEGTFISDYSIAM[Ahx]QQDFVNWLLAQK-NH2 (peptide, UniProt P09681 52-65, looked up, N-terminus assumed; SMILES CC[C@H](C)[C@H](NC(=O)[C@H](CO)NC(=O)[C@H](Cc1ccc(O)cc1)NC(=O)[C@H](CC(=O)O)NC(=O)[C@H](CO)NC(=O)[C@@H](NC(=O)[C@H](Cc1ccccc1)NC(=O)[C@@H](NC(=O)CNC(=O)[C@H](CCC(=O)O)NC(=O)[C@H](C)NC(=O)[C@@H](N)Cc1ccc(O)cc1)[C@@H](C)O)[C@@H](C)CC)C(=O)N[C@@H](C)C(=O)N[C@@H](CCSC)C(=O)NCCCCCC(=O)N[C@@H](CCC(N)=O)C(=O)N[C@@H](CCC(N)=O)C(=O)N[C@@H](CC(=O)O)C(=O)N[C@@H](Cc1ccccc1)C(=O)N[C@H](C(=O)N[C@@H](CC(N)=O)C(=O)N[C@@H](Cc1c[nH]c2ccccc12)C(=O)N[C@@H](CC(C)C)C(=O)N[C@@H](CC(C)C)C(=O)N[C@@H](C)C(=O)N[C@@H](CCC(N)=O)C(=O)N[C@@H](CCCCN)C(N)=O)C(C)C, range 52-65) [GIP(1-14)(Ahx)1(19-30)NH2] | – | – | – | 2710 | 86.1 | 102 | 1410
7 | YAEGTFISDYSIAMEKEKQQDFVNWLLAQK-NH2 (range 1-14;range 19-30) [GIP(1-14)(EKEK)(19-30)NH2] | – | – | – | 26 | 98.7 | 80.6 | 0.077
8 | YAEGTFISDYSIAMQQDFVNWLLAQK-NH2 (peptide, UniProt P09681 52-65, looked up, range 1-14;range 19-30; Core deletion, no linker (formula 6, D unused, truncated at residue 30)) [GIP(1-14)(19-30)NH2] | – | – | – | 1370 | 95.4 | 127 | 78.7
9 | YAEGTF[Ahx][Ahx]QQDFVNWLLAQK-NH2 (peptide, UniProt P09681 52-57, looked up, N-terminus assumed; SMILES CC(C)C[C@H](NC(=O)[C@H](CC(C)C)NC(=O)[C@H](Cc1c[nH]c2ccccc12)NC(=O)[C@H](CC(N)=O)NC(=O)[C@@H](NC(=O)[C@H](Cc1ccccc1)NC(=O)[C@H](CC(=O)O)NC(=O)[C@H](CCC(N)=O)NC(=O)[C@H](CCC(N)=O)NC(=O)CCCCCNC(=O)CCCCCNC(=O)[C@H](Cc1ccccc1)NC(=O)[C@@H](NC(=O)CNC(=O)[C@H](CCC(=O)O)NC(=O)[C@H](C)NC(=O)[C@@H](N)Cc1ccc(O)cc1)[C@@H](C)O)C(C)C)C(=O)N[C@@H](C)C(=O)N[C@@H](CCC(N)=O)C(=O)N[C@@H](CCCCN)C(N)=O, range 52-57) [GIP(1-6)(Ahx)2(19-30)NH2] | – | – | – | 4980 | 75.3 | 2.55 | –
10 | YAEGTFISDYSIAM[Ahx][Ahx][Ahx]QQDFVNWLLAQK-NH2 (peptide, UniProt P09681 52-65, looked up, N-terminus assumed; SMILES CC[C@H](C)[C@H](NC(=O)[C@H](CO)NC(=O)[C@H](Cc1ccc(O)cc1)NC(=O)[C@H](CC(=O)O)NC(=O)[C@H](CO)NC(=O)[C@@H](NC(=O)[C@H](Cc1ccccc1)NC(=O)[C@@H](NC(=O)CNC(=O)[C@H](CCC(=O)O)NC(=O)[C@H](C)NC(=O)[C@@H](N)Cc1ccc(O)cc1)[C@@H](C)O)[C@@H](C)CC)C(=O)N[C@@H](C)C(=O)N[C@@H](CCSC)C(=O)NCCCCCC(=O)NCCCCCC(=O)NCCCCCC(=O)N[C@@H](CCC(N)=O)C(=O)N[C@@H](CCC(N)=O)C(=O)N[C@@H](CC(=O)O)C(=O)N[C@@H](Cc1ccccc1)C(=O)N[C@H](C(=O)N[C@@H](CC(N)=O)C(=O)N[C@@H](Cc1c[nH]c2ccccc12)C(=O)N[C@@H](CC(C)C)C(=O)N[C@@H](CC(C)C)C(=O)N[C@@H](C)C(=O)N[C@@H](CCC(N)=O)C(=O)N[C@@H](CCCCN)C(N)=O)C(C)C, range 52-65; also called GlP(1-14)(Ahx)3(19-30)NH2) [GIP(1-14)(Ahx)3(19-30)NH2] | – | – | – | 3210 | 82.7 | 49.5 | ~20000
11 | YAEGTFISDYSIAM[Ahx][Ahx]QQDFVNWLLAQK-NH2 (peptide, UniProt P09681 52-65, looked up, N-terminus assumed; SMILES CC[C@H](C)[C@H](NC(=O)[C@H](CO)NC(=O)[C@H](Cc1ccc(O)cc1)NC(=O)[C@H](CC(=O)O)NC(=O)[C@H](CO)NC(=O)[C@@H](NC(=O)[C@H](Cc1ccccc1)NC(=O)[C@@H](NC(=O)CNC(=O)[C@H](CCC(=O)O)NC(=O)[C@H](C)NC(=O)[C@@H](N)Cc1ccc(O)cc1)[C@@H](C)O)[C@@H](C)CC)C(=O)N[C@@H](C)C(=O)N[C@@H](CCSC)C(=O)NCCCCCC(=O)NCCCCCC(=O)N[C@@H](CCC(N)=O)C(=O)N[C@@H](CCC(N)=O)C(=O)N[C@@H](CC(=O)O)C(=O)N[C@@H](Cc1ccccc1)C(=O)N[C@H](C(=O)N[C@@H](CC(N)=O)C(=O)N[C@@H](Cc1c[nH]c2ccccc12)C(=O)N[C@@H](CC(C)C)C(=O)N[C@@H](CC(C)C)C(=O)N[C@@H](C)C(=O)N[C@@H](CCC(N)=O)C(=O)N[C@@H](CCCCN)C(N)=O)C(C)C, range 52-65) [GIP(1-14)(Ahx)2(19-30)NH2] | – | – | – | 2770 | 85.8 | 95.9 | 2510
12 | YAEGTFISDYSIAMAAAAQQDFVNWLLAQK-NH2 (range 1-14;range 19-30) [GIP(1-14)(AAAA)(19-30)NH2] | – | – | – | 66.3 | 100 | 82.1 | 0.0587
13 | YAEGTF[Ahx][Ahx][Ahx]QQDFVNWLLAQK-NH2 (peptide, UniProt P09681 52-57, looked up, N-terminus assumed; SMILES CC(C)C[C@H](NC(=O)[C@H](CC(C)C)NC(=O)[C@H](Cc1c[nH]c2ccccc12)NC(=O)[C@H](CC(N)=O)NC(=O)[C@@H](NC(=O)[C@H](Cc1ccccc1)NC(=O)[C@H](CC(=O)O)NC(=O)[C@H](CCC(N)=O)NC(=O)[C@H](CCC(N)=O)NC(=O)CCCCCNC(=O)CCCCCNC(=O)CCCCCNC(=O)[C@H](Cc1ccccc1)NC(=O)[C@@H](NC(=O)CNC(=O)[C@H](CCC(=O)O)NC(=O)[C@H](C)NC(=O)[C@@H](N)Cc1ccc(O)cc1)[C@@H](C)O)C(C)C)C(=O)N[C@@H](C)C(=O)N[C@@H](CCC(N)=O)C(=O)N[C@@H](CCCCN)C(N)=O, range 52-57) [GIP(1-6)(Ahx)3(19-30)NH2] | – | – | – | 4030 | 67.1 | 13.5 | –

Reference: patent US20050137135A1 (priority 2002, published 2005)
